Assay results from doi:10.1101/841569 (bioRxiv, 2019).

Molecular target: the molecule itself
Experiment: crystal structure

B1: Mycobacterium tuberculosis MenD (2-succinyl-5-enolpyruvyl-6-hydroxy-3-cyclohexadiene-1-carboxylate synthase, SEPHCHC synthase) (enzyme)
chain: MNPSTTQARVVVDELIRGGVRDVVLCPGSRNAPLAFALQDADRSGRIRLHVRIDERTAGYLAIGLAIGAGAPVCVAMTSGTAVANLGPAVVEANYARVPLIVLSANRPYELLGTGANQTMEQLGYFGTQVRASISLGLAEDAPERTSALNATWRSATCRVLAAATGARTANAGPVHFDIPLREPLVPDPEPLGAVTPPGRPAGKPWTYTPPVTFDQPLDIDLSVDTVVISGHGAGVHPNLAALPTVAEPTAPRSGDNPLHPLALPLLRPQQVIMLGRPTLHRPVSVLLADAEVPVFALTTGPRWPDVSGNSQATGTRAVTTGAPRPAWLDRCAAMNRHAIAAVREQLAAHPLTTGLHVAAAVSHALRPGDQLVLGASNPVRDVALAGLDTRGIRVRSNRGVAGIDGTVSTAIGAALAYEGAHERTGSPDSPPRTIALIGDLTFVHDSSGLLIGPTEPIPRSLTIVVSNDNGGGIFELLEQGDPRFSDVSSRIFGTPHDVDVGALCRAYHVESRQIEVDELGPTLDQPGAGMRVLEVKADRSSLRQLHAAIKAAL
For B1, the “stoichiometry N” value was 4.
